The record followed here is article PMC8998557, “A Novel Family of Winged-Helix Single-Stranded DNA-Binding Proteins from Archaea”.

Series [1] deals with T1, Sul7s (Sulfolobus islandicus Rey15A, UniProt F0NBY5 1-59).
T1 sequence: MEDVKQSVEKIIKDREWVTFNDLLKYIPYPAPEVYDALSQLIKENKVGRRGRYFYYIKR
As to the kind of experiment: BLI; BLI: 50 mM Tris-Cl pH 7.5, 100 mM NaCl, 1 mM EDTA, 0.02% Tween-20, 30 C; NMR: 20 mM potassium phosphate pH 7.0, 30 mM NaCl, 0.02% NaN3, 298 K. The settings on record: protein: recombinant, tags: untagged. In general terms: BLI is a label-free optical method that tracks binding on a fibre tip over time.

Series [2] concerns the target T1, Sul7s. As to the kind of experiment: NMR; 0.7 mM 15N/13C protein, HSQC titration; BLI: 50 mM Tris-Cl pH 7.5, 100 mM NaCl, 1 mM EDTA, 0.02% Tween-20, 30 C; NMR: 20 mM potassium phosphate pH 7.0, 30 mM NaCl, 0.02% NaN3, 298 K. Particulars: protein: recombinant; tags: untagged.
For a further series, the target named is T2, Sul7s K58A (Sulfolobus islandicus Rey15A, UniProt F0NBY5 1-59, K58A).
T2 sequence: T1 sequence with K58A
As to the kind of experiment: BLI; BLI: 50 mM Tris-Cl pH 7.5, 100 mM NaCl, 1 mM EDTA, 0.02% Tween-20, 30 C; NMR: 20 mM potassium phosphate pH 7.0, 30 mM NaCl, 0.02% NaN3, 298 K. Particulars: protein: recombinant; tags: untagged; label: 5'-biotin.

The target of a further series is T3, Sul7s N21A (Sulfolobus islandicus Rey15A, UniProt F0NBY5 1-59, N21A).
T3 sequence: T1 sequence with N21A
The description is as above. The settings on record: protein: recombinant; tags: untagged; label: 5'-biotin.

The target of the next series is T4, Sul7s K43A (Sulfolobus islandicus Rey15A, UniProt F0NBY5 1-59, K43A).
T4 sequence: T1 sequence with K43A
The description is as above. Particulars: protein: recombinant; tags: untagged; label: 5'-biotin.

The next series deals with T5, Sul7s W17A (Sulfolobus islandicus Rey15A, UniProt F0NBY5 1-59, W17A).
T5 sequence: T1 sequence with W17A
The series is described as above. The settings on record: protein: recombinant; tags: untagged; label: 5'-biotin.

Another series deals with T6, Sul7s E33A (Sulfolobus islandicus Rey15A, UniProt F0NBY5 1-59, E33A).
T6 sequence: T1 sequence with E33A
The series is described as above. The settings on record: protein: recombinant; tags: untagged; label: 5'-biotin.

Another series addresses T7, Sul7s K13A (Sulfolobus islandicus Rey15A, UniProt F0NBY5 1-59, K13A).
T7 sequence: T1 sequence with K13A
The description is as above. Particulars: protein: recombinant; tags: untagged; label: 5'-biotin.

For another series, the target named is T8, Sul7s Y56A (Sulfolobus islandicus Rey15A, UniProt F0NBY5 1-59, Y56A).
T8 sequence: T1 sequence with Y56A
The description is as above. Particulars: protein: recombinant; tags: untagged; label: 5'-biotin.

The target in the next series is T9, Sul7s D3A (Sulfolobus islandicus Rey15A, UniProt F0NBY5 1-59, D3A).
T9 sequence: T1 sequence with D3A
The description is as above. Particulars: protein: recombinant; tags: untagged; label: 5'-biotin.

A further series deals with T10, Sul7s T19G (Sulfolobus islandicus Rey15A, UniProt F0NBY5 1-59, T19G).
T10 sequence: T1 sequence with T19G
The description is as above. Particulars: protein: recombinant; tags: untagged; label: 5'-biotin.

A further series deals with T11, Sul7s R15A (Sulfolobus islandicus Rey15A, UniProt F0NBY5 1-59, R15A).
T11 sequence: T1 sequence with R15A
Described as above. The settings on record: protein: recombinant; tags: untagged; label: 5'-biotin.

A further series deals with T12, Sul7s R52A (Sulfolobus islandicus Rey15A, UniProt F0NBY5 1-59, R52A).
T12 sequence: T1 sequence with R52A
As to the kind of experiment: BLI; barely detected up to 80 uM protein; BLI: 50 mM Tris-Cl pH 7.5, 100 mM NaCl, 1 mM EDTA, 0.02% Tween-20, 30 C; NMR: 20 mM potassium phosphate pH 7.0, 30 mM NaCl, 0.02% NaN3, 298 K. The settings on record: protein: recombinant; tags: untagged; label: 5'-biotin.

For the next series, the target named is T13, Sul7s R59A (Sulfolobus islandicus Rey15A, UniProt F0NBY5 1-59, R59A).
T13 sequence: T1 sequence with R59A
Described as above. Particulars: protein: recombinant; tags: untagged; label: 5'-biotin.

A further series concerns the target T14, Sul7s R49A (Sulfolobus islandicus Rey15A, UniProt F0NBY5 1-59, R49A).
T14 sequence: T1 sequence with R49A
The series is described as above. The settings on record: protein: recombinant; tags: untagged; label: 5'-biotin.

The next series addresses T15, Sul7s D36A (Sulfolobus islandicus Rey15A, UniProt F0NBY5 1-59, D36A).
T15 sequence: T1 sequence with D36A
As to the kind of experiment: BLI; text calls decrease marginal, in conflict with table value; BLI: 50 mM Tris-Cl pH 7.5, 100 mM NaCl, 1 mM EDTA, 0.02% Tween-20, 30 C; NMR: 20 mM potassium phosphate pH 7.0, 30 mM NaCl, 0.02% NaN3, 298 K. Particulars: protein: recombinant; tags: untagged; label: 5'-biotin.

Where a chain is given by its changes, count along the chain named.

B1: D30 (dsDNA)
DNA 1: TTTCTACCCTTTGGTGCTAATGCCCATACT
DNA 2: AGTATGGGCATTAGCACCAAAGGGTAGAAA
On to B1, for which the equilibrium dissociation constant (Kd) in the series with Sul7s [1] (label: 5'-biotin on strand 1, blunt) amounted to 76.8 ± 16.9 µM.

B2: G-rich30 (ssDNA)
DNA: CTGGGGGCTGGGGGCTGGGGGCTGGGGGCT
Consider B2, for which the Kd with Sul7s [1] (label: 5'-biotin) came to 17.5 ± 4.8 µM.

B3: T30 (ssDNA)
DNA: TTTTTTTTTTTTTTTTTTTTTTTTTTTTTT
Regarding B3, the equilibrium dissociation constant (Kd) in the series with Sul7s [1] (label: 5'-biotin) worked out at 1.19 ± 0.3 µM.

B4: S20-F (ssDNA)
DNA: GTAGTCAGACACAGTAGTTC
In the case of B4, the binding result in the series with Sul7s [2] is “binds”.

B5: S30 (S30-F) (ssDNA)
DNA: B1 DNA 1
For the molecule B5, the Kd with Sul7s K58A was 26.9 µM; in the series with Sul7s N21A, 8.92 µM; with Sul7s K43A, 27.9 µM; with Sul7s [1] (label: 5'-biotin) it was 5.62 ± 0.95 µM; in the series with Sul7s W17A, 10.7 µM; in the series with Sul7s E33A, 1.21 µM. Moreover, the Kd was determined as 30.4 µM with Sul7s K13A; 15.6 µM with Sul7s Y56A; 6.01 µM with Sul7s D3A; 14.1 µM in the series with Sul7s T19G; 4.67 µM with Sul7s R15A; 88.3 µM with Sul7s D36A. In addition, the binding result with Sul7s R52A, with Sul7s R59A and with Sul7s R49A was “no binding” in each case.

As a reminder, the Kd is the equilibrium constant for the complex coming apart.
